Each block holds one sequence with its values, some of them ahead of it.
Experiments:
HLA-A*30:01 = test: IEDB peptide-MHC binding, purified MHC/competitive/radioactivity; filed as Kd, often an IC50 or EC50 that approximates it; ≥ and ≤ were set here for values at or beyond the usual limits of such assays
HLA-A*30:02 = test: as above
HLA-B*51:01 = test: as above
HLA-A*02:01 [1] = test: IEDB peptide-MHC binding, purified MHC/competitive/fluorescence; ≥ and ≤ were set here for values at or beyond the usual limits of such assays
HLA-A*02:01 [2] = test: IEDB peptide-MHC binding, purified MHC/competitive/fluorescence; filed as Kd, often an IC50 or EC50 that approximates it; ≥ and ≤ were set here for values at or beyond the usual limits of such assays
HLA-B*15:01 = test: IEDB peptide-MHC binding, purified MHC/direct/fluorescence; filed as Kd, often an IC50 or EC50 that approximates it; ≥ and ≤ were set here for values at or beyond the usual limits of such assays; settings: source organism: Rickettsia prowazekii
HLA-A*01:01 [3] = test: as above
HLA-A*32:01 = test: IEDB peptide-MHC binding, purified MHC/competitive/radioactivity; filed as Kd, often an IC50 or EC50 that approximates it; ≥ and ≤ were set here for values at or beyond the usual limits of such assays
HLA-B*58:01 = test: IEDB peptide-MHC binding, purified MHC/direct/fluorescence; filed as Kd, often an IC50 or EC50 that approximates it; ≥ and ≤ were set here for values at or beyond the usual limits of such assays; settings: source organism: Homo sapiens
HLA-A*03:01 = test: as above; settings: source organism: Homo sapiens
HLA-A*69:01 = test: as above; settings: source organism: Homo sapiens
HLA-A*01:01 [4] = test: IEDB peptide-MHC binding, purified MHC/competitive/radioactivity; filed as Kd, often an IC50 or EC50 that approximates it; ≥ and ≤ were set here for values at or beyond the usual limits of such assays; settings: source organism: Dengue virus 4 Philippines/H241/1956
[5] = source organism: Vaccinia virus WR
[6] = source organism: Dengue virus 3 Martinique/1243/1999
[7] = source organism: Dengue virus 1 Brazil/97-11/1997
[8] = source organism: Dengue virus 2 Jamaica/1409/1983

Sequence: HTRDPQNAA
Kd (HLA-A*30:01; [5]): 0.907 nM

Sequence: HWFSRENSY
Kd (HLA-A*30:02; [6]): 246 nM

Sequence: IALFLAHAI
Kd (HLA-B*51:01; [7]): 135 nM

Sequence: IGNEEFLDY
Kd (HLA-A*30:02; [6]): 961 nM

Sequence: IIHDFIDNP
IC50 (HLA-A*02:01 [1]; source organism: Sudan ebolavirus): ≥ 85400 nM

Kd (HLA-A*02:01 [2]; source organism: Escherichia coli O139:H28 str. E24377A): 0.2 nM
Sequence: ILTLANWCL

Sequence: IMAKNEVFCV
IC50 (HLA-A*02:01 [1]; source organism: Hepatitis C virus genotype 1): 5000 nM

Sequence: IQGTLAKAY
Kd (HLA-B*15:01): 215 nM

Sequence: ISEKLRSGY
Kd (HLA-A*01:01 [3]; source organism: Influenza A virus (A/Kinmen/645/04(H3N2))): 467 nM

Sequence: IVREAIKRK
Kd (HLA-A*30:01; [7]): 97.7 nM

Sequence: KAKGSRAIWY
Kd (HLA-A*30:02; [8]): 6.68 nM

Sequence: KIDTTHVSKV
Kd (HLA-A*02:01 [2]; source organism: Vaccinia virus Tian Tan): 206 nM

Sequence: KIEIERKKL
Kd (HLA-A*02:01 [2]; [5]): 422 nM

Sequence: KIKDVSYND
IC50 (HLA-A*02:01 [1]; source organism: Vaccinia virus): ≥ 571000 nM

Sequence: KLITFLFVI
Kd (HLA-A*32:01; [5]): 0.409 nM

Sequence: KLKFRFIIR
Kd (HLA-A*30:01; [5]): 119 nM

Sequence: KLKIALAKG
Kd (HLA-A*30:01; [5]): 479 nM

Sequence: KLKPRWLDA
Kd (HLA-A*30:01; [8]): 21 nM

Sequence: KMEALQRKY
Kd (HLA-A*30:02; source organism: Dengue virus 2 16681-PDK53): 61.4 nM

Sequence: KMSILGVSI
Kd (HLA-A*32:01; [5]): 2.36 nM

Sequence: KNENDQYIY
Kd (HLA-A*30:02; [8]): 0.15 nM

Kd (HLA-B*58:01): 220 nM | Kd (HLA-A*01:01 [3]; source organism: Homo sapiens): 55 nM | Kd (HLA-A*03:01): 18700 nM | Kd (HLA-A*69:01): 1330 nM
Sequence: KSDLQPPNY

Sequence: KSWGKAKII
Kd (HLA-A*32:01; [7]): 47.4 nM

Sequence: KTETTILDV
Kd (HLA-A*01:01 [4]): 6200 nM

Sequence: KTISMLIEV
Kd (HLA-A*30:01; [5]): 580 nM

Sequence: KTSCSKNEA
Kd (HLA-A*30:01; [5]): 72.2 nM

Sequence: KVKSYNYML
Kd (HLA-A*30:01; [5]): 0.175 nM

Sequence: KVLFLQQSI
Kd (HLA-A*32:01; [5]): 0.704 nM

Sequence: KVYINHPFM
Kd (HLA-A*30:01; [5]): 0.517 nM

Sequence: LAAIANQAV
Kd (HLA-B*51:01; [6]): 1360 nM

Sequence: LAIPPTAGI
Kd (HLA-B*51:01; [7]): 393 nM

Sequence: LMDMITLSL
Kd (HLA-A*32:01; [5]): 29.7 nM

Sequence: LMHAPAFET
IC50 (HLA-A*02:01 [1]; source organism: Human alphaherpesvirus 1 strain 17): 2000 nM

Sequence: LPLPWTAGA
Kd (HLA-B*51:01; source organism: Dengue virus 4 Dominica/814669/1981): 2830 nM
